Test results taken from the supplement of paper PMC10065799, “High-throughput profiling of sequence recognition by tyrosine kinases and SH2 domains using bacterial peptide display” (eLife, 2023).

Legend:
[1] = test system: AncSZ; experiment: phosphorylation enrichment, bacterial display (enrichment ratio); higher = better substrate or ligand; peptides without Tyr show the background
[2] = molecular target: EPHB1 (UniProt P54762); experiment: as above
[3] = molecular target: EPHB2 (UniProt P29323); experiment: as above
[4] = molecular target: FGFR1 (UniProt P11362); experiment: as above
[5] = molecular target: FGFR3 (UniProt P22607); experiment: as above
[6] = test system: Fer (mouse); experiment: as above
[7] = molecular target: Fes (UniProt P07332); experiment: as above
[8] = molecular target: Fyn (UniProt P06241); experiment: as above
[9] = molecular target: Hck (UniProt P08631); experiment: as above
[10] = molecular target: Jak2 (UniProt O60674); experiment: as above
[11] = molecular target: MERTK (UniProt Q12866); experiment: as above
[12] = test system: c-Abl (mouse); experiment: as above
[13] = test system: c-Src; experiment: as above
[14] = molecular target: Grb2 SH2 (UniProt P62993); experiment: SH2 binding enrichment of the phosphorylated peptide, bacterial display (enrichment ratio); higher = better substrate or ligand; peptides without Tyr show the background
[15] = molecular target: SHP2-C SH2; experiment: as above
[16] = molecular target: c-Src SH2; experiment: as above
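For SH2 binding enrichment of the phosphorylated peptide, bacterial display in this document: peptide library displayed on the E. coli surface as eCPX fusions, selected cells deep-sequenced, score is each peptide's frequency after selection divided by its frequency in the input.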
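For phosphorylation enrichment, bacterial display in this document: 11-residue human phosphosite peptides and single-mutation variants displayed on the E. coli surface, counted by deep sequencing, each peptide's frequency after selection divided by its frequency in the unselected input library; frequency after pTyr selection over input frequency; kinase dosed for 20-30% of maximal phosphorylation in three min.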

Chain of FGFR3 (P22607 whole entry, looked up): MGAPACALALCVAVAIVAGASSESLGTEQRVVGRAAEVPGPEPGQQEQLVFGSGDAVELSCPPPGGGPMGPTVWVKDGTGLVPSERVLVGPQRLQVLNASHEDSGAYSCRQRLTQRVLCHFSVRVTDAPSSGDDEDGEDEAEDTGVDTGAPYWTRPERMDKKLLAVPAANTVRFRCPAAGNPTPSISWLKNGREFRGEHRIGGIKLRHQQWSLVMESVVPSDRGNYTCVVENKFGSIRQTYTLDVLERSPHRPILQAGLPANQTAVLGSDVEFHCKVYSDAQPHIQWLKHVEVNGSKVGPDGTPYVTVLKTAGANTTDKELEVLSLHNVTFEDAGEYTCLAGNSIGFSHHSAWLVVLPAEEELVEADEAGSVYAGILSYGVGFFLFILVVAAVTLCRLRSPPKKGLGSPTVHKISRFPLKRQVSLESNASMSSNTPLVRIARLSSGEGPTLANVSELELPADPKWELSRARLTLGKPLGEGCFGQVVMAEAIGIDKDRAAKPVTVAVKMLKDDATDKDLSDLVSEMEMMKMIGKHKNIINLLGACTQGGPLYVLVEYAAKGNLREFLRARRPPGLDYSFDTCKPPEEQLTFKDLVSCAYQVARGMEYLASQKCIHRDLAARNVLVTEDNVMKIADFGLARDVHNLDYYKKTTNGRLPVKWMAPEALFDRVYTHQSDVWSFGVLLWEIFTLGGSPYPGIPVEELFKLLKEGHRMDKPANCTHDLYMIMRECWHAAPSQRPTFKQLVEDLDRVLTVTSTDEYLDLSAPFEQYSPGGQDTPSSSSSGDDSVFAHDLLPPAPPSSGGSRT
Chain of EPHB2 (P29323 whole entry, looked up): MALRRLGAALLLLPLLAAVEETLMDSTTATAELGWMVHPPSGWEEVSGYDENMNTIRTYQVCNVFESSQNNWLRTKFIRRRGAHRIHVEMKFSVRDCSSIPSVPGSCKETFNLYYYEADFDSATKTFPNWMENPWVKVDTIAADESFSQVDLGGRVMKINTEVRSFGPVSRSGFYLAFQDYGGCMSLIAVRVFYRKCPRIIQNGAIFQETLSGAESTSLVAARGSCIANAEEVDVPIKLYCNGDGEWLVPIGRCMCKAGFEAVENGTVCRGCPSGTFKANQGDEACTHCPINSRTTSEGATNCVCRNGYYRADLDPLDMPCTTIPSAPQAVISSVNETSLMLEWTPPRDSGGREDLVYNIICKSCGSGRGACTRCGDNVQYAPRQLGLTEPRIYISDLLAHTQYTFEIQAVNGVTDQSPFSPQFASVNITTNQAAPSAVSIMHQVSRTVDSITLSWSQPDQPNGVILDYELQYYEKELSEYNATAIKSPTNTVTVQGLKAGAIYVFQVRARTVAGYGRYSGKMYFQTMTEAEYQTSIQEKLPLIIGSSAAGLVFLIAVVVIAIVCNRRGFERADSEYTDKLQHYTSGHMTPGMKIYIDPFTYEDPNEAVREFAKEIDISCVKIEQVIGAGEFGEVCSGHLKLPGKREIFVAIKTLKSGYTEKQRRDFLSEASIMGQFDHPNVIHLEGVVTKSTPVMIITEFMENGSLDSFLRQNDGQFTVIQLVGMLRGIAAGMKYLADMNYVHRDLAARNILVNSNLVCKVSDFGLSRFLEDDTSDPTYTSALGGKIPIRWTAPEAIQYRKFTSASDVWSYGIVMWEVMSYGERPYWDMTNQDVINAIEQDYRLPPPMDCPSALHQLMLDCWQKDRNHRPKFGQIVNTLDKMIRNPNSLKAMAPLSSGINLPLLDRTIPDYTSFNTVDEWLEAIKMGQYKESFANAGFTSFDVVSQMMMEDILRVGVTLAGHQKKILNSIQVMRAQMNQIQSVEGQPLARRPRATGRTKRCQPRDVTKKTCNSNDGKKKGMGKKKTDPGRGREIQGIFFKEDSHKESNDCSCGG
Chain of Hck (P08631 whole entry, looked up): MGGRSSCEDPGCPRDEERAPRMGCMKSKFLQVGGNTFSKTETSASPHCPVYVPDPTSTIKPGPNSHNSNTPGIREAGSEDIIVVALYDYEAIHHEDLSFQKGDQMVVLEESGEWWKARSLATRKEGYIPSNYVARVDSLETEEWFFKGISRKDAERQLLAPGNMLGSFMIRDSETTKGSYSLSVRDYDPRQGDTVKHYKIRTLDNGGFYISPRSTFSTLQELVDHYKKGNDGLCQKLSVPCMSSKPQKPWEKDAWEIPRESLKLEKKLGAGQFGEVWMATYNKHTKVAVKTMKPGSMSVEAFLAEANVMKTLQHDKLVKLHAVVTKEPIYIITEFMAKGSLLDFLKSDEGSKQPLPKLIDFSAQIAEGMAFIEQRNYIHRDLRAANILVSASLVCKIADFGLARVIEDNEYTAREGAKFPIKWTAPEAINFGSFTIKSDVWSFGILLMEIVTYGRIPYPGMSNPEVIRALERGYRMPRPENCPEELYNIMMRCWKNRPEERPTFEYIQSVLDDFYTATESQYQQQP
Chain of Jak2 (O60674 whole entry, looked up): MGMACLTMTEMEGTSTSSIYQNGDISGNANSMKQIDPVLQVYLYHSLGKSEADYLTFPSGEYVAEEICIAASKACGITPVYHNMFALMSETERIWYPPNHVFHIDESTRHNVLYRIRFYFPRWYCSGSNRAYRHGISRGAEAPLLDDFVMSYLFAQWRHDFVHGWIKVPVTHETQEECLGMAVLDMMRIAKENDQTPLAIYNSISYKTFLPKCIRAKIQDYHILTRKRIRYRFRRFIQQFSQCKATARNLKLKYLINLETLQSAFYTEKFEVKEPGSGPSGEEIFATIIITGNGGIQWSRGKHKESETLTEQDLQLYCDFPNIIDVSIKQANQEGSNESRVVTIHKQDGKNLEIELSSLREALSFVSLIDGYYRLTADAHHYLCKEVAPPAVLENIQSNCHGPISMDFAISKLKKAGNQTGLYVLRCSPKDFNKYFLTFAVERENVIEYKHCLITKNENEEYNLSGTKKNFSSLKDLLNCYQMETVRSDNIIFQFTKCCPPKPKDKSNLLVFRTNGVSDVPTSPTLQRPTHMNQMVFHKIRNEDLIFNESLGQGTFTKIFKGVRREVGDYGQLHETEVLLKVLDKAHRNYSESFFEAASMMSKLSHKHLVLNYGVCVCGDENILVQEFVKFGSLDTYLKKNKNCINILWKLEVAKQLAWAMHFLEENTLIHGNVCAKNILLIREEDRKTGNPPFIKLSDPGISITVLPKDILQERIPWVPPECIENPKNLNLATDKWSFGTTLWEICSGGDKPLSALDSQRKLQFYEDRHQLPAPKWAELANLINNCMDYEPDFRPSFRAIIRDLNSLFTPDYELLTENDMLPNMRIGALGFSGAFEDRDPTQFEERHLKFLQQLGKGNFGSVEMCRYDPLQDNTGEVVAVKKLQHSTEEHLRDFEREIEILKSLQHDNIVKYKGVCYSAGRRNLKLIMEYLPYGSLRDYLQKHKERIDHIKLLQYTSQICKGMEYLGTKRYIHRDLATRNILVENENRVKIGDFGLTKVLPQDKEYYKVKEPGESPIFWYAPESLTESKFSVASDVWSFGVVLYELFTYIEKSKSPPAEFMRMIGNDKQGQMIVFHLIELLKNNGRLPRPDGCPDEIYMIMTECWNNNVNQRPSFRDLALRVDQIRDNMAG
Chain of Fyn (P06241 whole entry, looked up): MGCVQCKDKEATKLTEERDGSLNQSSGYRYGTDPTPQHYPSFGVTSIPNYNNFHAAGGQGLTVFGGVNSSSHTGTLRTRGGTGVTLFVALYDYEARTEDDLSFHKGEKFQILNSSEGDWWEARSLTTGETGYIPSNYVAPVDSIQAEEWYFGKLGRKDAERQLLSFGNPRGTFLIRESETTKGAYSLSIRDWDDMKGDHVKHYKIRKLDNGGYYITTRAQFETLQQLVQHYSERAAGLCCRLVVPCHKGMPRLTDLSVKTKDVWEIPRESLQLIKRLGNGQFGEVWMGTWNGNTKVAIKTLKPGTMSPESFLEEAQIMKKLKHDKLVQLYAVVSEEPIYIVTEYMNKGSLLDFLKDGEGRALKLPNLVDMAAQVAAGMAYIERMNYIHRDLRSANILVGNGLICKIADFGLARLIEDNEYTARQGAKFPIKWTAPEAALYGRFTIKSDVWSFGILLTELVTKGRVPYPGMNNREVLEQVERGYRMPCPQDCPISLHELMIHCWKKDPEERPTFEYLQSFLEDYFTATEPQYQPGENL
Chain of MERTK (Q12866 whole entry, looked up): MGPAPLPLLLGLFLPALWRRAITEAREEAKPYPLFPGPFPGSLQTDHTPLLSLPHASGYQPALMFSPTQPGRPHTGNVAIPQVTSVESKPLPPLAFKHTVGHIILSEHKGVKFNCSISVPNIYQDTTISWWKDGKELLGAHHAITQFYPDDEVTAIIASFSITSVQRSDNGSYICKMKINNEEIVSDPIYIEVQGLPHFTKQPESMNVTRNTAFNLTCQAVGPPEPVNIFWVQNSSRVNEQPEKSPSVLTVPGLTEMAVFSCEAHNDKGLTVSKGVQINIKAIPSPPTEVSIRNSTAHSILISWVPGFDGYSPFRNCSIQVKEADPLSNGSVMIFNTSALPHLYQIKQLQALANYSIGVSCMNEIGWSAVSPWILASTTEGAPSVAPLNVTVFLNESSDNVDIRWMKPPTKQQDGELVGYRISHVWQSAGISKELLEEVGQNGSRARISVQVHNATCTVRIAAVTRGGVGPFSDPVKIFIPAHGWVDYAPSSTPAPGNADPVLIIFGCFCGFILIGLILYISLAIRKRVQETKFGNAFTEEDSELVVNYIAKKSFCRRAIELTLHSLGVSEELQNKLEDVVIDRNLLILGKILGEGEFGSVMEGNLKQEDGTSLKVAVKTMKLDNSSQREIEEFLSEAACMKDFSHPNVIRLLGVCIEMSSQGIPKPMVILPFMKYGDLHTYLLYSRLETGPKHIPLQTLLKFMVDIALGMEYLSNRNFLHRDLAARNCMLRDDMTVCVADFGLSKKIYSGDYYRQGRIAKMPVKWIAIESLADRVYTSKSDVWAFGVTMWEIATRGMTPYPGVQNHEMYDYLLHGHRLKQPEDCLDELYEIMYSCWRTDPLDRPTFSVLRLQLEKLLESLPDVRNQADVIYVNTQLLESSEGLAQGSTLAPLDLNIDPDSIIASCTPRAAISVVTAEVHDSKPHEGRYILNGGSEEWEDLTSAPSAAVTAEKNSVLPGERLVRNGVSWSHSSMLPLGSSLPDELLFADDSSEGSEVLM

| SH2 binding enrichment [14] | SH2 binding enrichment [15] | SH2 binding enrichment [16] | Sequence | phosphorylation enrichment [1] | phosphorylation enrichment [2] | phosphorylation enrichment [3] | phosphorylation enrichment [4] | phosphorylation enrichment [5] | phosphorylation enrichment [6] | phosphorylation enrichment [7] | phosphorylation enrichment [8] | phosphorylation enrichment [9] | phosphorylation enrichment [10] | phosphorylation enrichment [11] | phosphorylation enrichment [12] | phosphorylation enrichment [13] |
| --- | --- | --- | --- | --- | --- | --- | --- | --- | --- | --- | --- | --- | --- | --- | --- | --- |
| 1.02 | 1.07 | 0.589 | FSSLGYPLPEG [ZSWIM4_Y87_P89L_YF] | 0.747 | 0.372 | 0.446 | 0.413 | 0.472 | 0.394 | 0.722 | 0.446 | 0.525 | 0.635 | 0.519 | 0.501 | 0.42 |
| 0.717 | 0.418 | 2.51 | FTNRSYDLDYD [MYC_Y12_N11S] | 1.24 | 0.542 | 0.841 | 0.561 | 0.745 | 0.488 | 1.13 | 0.565 | 0.632 | 0.804 | 0.512 | 0.645 | 0.576 |
| 0.704 | 0.561 | 0.678 | GADAIYDHINE [UQCR10_Y44] | 1.03 | 0.91 | 1.03 | 0.5 | 0.563 | 2.82 | 0.953 | 5.57 | 6.65 | 0.777 | 3.14 | 0.689 | 4.96 |
| 1.62 | 0.697 | 0.873 | GADDSYYTVRS [ZAP70_Y492_A495V] | 1.43 | 0.68 | 0.548 | 5.51 | 3.76 | 0.644 | 0.882 | 1.44 | 2.39 | 1.16 | 0.676 | 0.79 | 1.65 |
| 0.82 | 0.524 | 0.391 | GASWRYRSGVS [NEU1_Y242_G243R] | 0.583 | 0.388 | 0.608 | 0.494 | 0.511 | 0.474 | 0.693 | 0.388 | 0.46 | 0.587 | 0.402 | 0.48 | 0.445 |
| 0.958 | 0.809 | 0.68 | GAVDTYCRHNF [HLA-DRB1_Y107_A102G_YF] | 0.649 | 0.695 | 0.524 | 0.427 | 0.528 | 0.591 | 0.742 | 0.479 | 0.509 | 0.648 | 0.474 | 0.583 | 0.49 |
| 0.755 | 0.386 | 0.337 | GCKKRYDKDKP [THAP1_Y14_N12K] | 0.833 | 0.449 | 0.534 | 0.506 | 0.703 | 0.445 | 0.702 | 0.396 | 0.452 | 0.529 | 0.6 | 0.621 | 0.531 |
| 1.02 | 0.648 | 0.699 | GDYYRSLAEVA [YWHAG_Y133_Y133S] | 1.3 | 1.68 | 1.09 | 5.42 | 3.26 | 0.419 | 0.75 | 0.916 | 1.36 | 1.45 | 0.663 | 1.82 | 0.664 |
| 0.734 | 2.31 | 0.566 | GESVSYLFSHV [PRPS1_Y311] | 0.872 | 0.511 | 0.473 | 0.397 | 0.588 | 0.417 | 0.996 | 0.421 | 0.473 | 0.847 | 0.421 | 0.701 | 0.431 |
| 0.604 | 0.547 | 0.364 | GFAIVYGTIIL [GPR179_Y460] | 1.19 | 0.644 | 0.592 | 0.441 | 0.84 | 0.514 | 1.32 | 0.431 | 0.502 | 1.28 | 0.389 | 1.31 | 0.462 |
| 0.802 | 0.454 | 0.495 | GFEVVYVTEPI [HSP90AB1_Y512_M513V] | 1.1 | 0.344 | 0.465 | 0.443 | 0.605 | 0.444 | 0.959 | 0.424 | 0.549 | 0.983 | 0.386 | 0.641 | 0.591 |
| 1.64 | 1.63 | 1.16 | GFKVRYATWSI [FGFR1_Y210_YF] | 1.11 | 0.714 | 0.534 | 0.463 | 0.795 | 0.512 | 1.22 | 0.494 | 0.512 | 0.997 | 0.499 | 0.711 | 0.392 |
| 0.833 | 0.747 | 0.52 | GGGGSYNVFGN [HNRNPA1_Y312_D314V] | 0.65 | 0.404 | 0.523 | 0.467 | 0.515 | 0.419 | 0.742 | 0.441 | 0.424 | 0.723 | 0.457 | 0.652 | 0.488 |
| 1.03 | 0.906 | 0.731 | GGSTYYIDTNA [ACTL6A_Y69_P66S] | 0.882 | 0.563 | 0.555 | 0.724 | 0.719 | 0.453 | 0.998 | 0.955 | 0.602 | 0.668 | 1.01 | 0.654 | 0.805 |
| 0.762 | 0.648 | 0.453 | GGTTLYPGIAD [ACTC1_Y308_M307L] | 0.587 | 0.446 | 0.531 | 0.537 | 0.548 | 0.431 | 0.765 | 0.458 | 0.442 | 0.553 | 0.381 | 0.484 | 0.363 |

| Sequence | SH2 binding enrichment [14] | SH2 binding enrichment [15] | SH2 binding enrichment [16] | phosphorylation enrichment [1] | phosphorylation enrichment [2] | phosphorylation enrichment [3] | phosphorylation enrichment [4] | phosphorylation enrichment [5] | phosphorylation enrichment [6] | phosphorylation enrichment [7] | phosphorylation enrichment [8] | phosphorylation enrichment [9] | phosphorylation enrichment [10] | phosphorylation enrichment [11] | phosphorylation enrichment [12] | phosphorylation enrichment [13] |
| --- | --- | --- | --- | --- | --- | --- | --- | --- | --- | --- | --- | --- | --- | --- | --- | --- |
| GEPLSYTRFSL [TFRC_Y20] | 0.901 | 0.519 | 0.558 | 0.833 | 0.438 | 0.455 | 0.452 | 0.545 | 0.554 | 0.935 | 0.443 | 0.52 | 2.21 | 0.567 | 1 | 0.83 |
| GGQVFYNSEYG [FLT4_Y1333] | 0.648 | 0.707 | 0.435 | 0.719 | 0.402 | 0.442 | 0.376 | 0.558 | 0.36 | 0.779 | 0.456 | 0.462 | 0.751 | 0.467 | 0.497 | 0.521 |
